Results taken from patent US20230192839A1, “ANTIBODIES HAVING CONDITIONAL AFFINITY AND METHODS OF USE THEREOF” (PFIZER INC., priority 2017, published 2023).
Changes are numbered by the printed parent chain.

B1: P07_C04: anti-CD33 clone with conditional affinity; VH SEQ ID NO: 25, VL SEQ ID NO: 26; also as scFv in CAR (antibody, V domains shown)
VH: QVQLVESGGGLVQAGGSLRLSCAASRRSSRSWAMHWVRQAPGKGLEWVAVISYDGRLKYYADSVKGRFTISRDNAEYLVYLQMNSLRAEDTAVYYCAAEPDGEGTNGGLDIWGQGTLVTVSS
VL: DIQMTQSPSSLSASVGDRVTITCRASQNISRYLNWYQQKPGKAPKLLIYSASSLQTGVPSRFSGSGSGTDFTLTISSLQPEDFATYYCQQSYSSGAFGQGTKVEIK
modifications: Synthetic Antibody
notes: also as scFv in CAR
B2: P03_A01: anti-CD33 clone with conditional affinity; VH SEQ ID NO: 19, VL SEQ ID NO: 20; also as scFv in CAR (antibody, V domains shown)
VH: QVQLVESGGGLVQAGGSLRLSCAASRRSSRSWAMHWVRQAPGKGLEWVAVISYDGRLKYYADSVKGRFTISRDNAEYLVYLQMNSLRAEDTAVYYCAAETGSVGLDYWGQGTLVTVSS
VL: B1 VL with N28G, R31T, S50G, S52T, Q55E, T56S, S91G, S94Q, A96T
modifications: Synthetic Antibody
notes: also as scFv in CAR

Experiments:
MV4-11 cells = assay: Sequential rounds of in vitro cytotoxicity assays with changing MTX concentration (reversible inhibition); type: cell-based, human; details: Round 0-1 no MTX, then 100 µM MTX at Round 1-2 and Round 2-3; FIGS. 9A and 9B
Protocol: The anti-CD33 clones tested in this example were: P03_A01, P07_C04, and P02_D09. In addition, a tool T cell was prepared as described in Example 4, as were untransduced T cells. Also, each of the different conditional CAR T cells described above was generated in triplicate from PBMC cells from three different human donors. The target cell line used in this assay was MV4-11; these cells were transduced to stably express GFP and firefly luciferase, as described in Example 5.
This experiment involved a series of in vitro cytotoxicity assays, in which co-cultures of T cells and MV4-11 target cells were incubated together for multiple rounds of sequential cytotoxicity assays, in which the MTX concentration changed at different rounds of the assays. In vitro cytotoxicity assays were carried out in 24-well plates by co-culturing 200,000 T cells with 200,000 MV4-11 cells, for each different T cells described above. In addition, each of the co-cultures contained either 100 µM MTX or 0 µM MTX at different times, as indicated by the schematics in FIGS. 9A and 9C. In both conditions, 1 mM leucovorin was supplemented to circumvent MTX toxicity. For each round of the assay, co-cultures were maintained in a final volume of 500 µl of RPMI 1640 medium at 37 C with 5% CO2 for 48 hours. At the end of each round, cells were spun down (250 × g, 10 minutes), supernatant was removed, and fresh media containing fresh MV4-11 cells, leucovorin, and optionally MTX were added according to the schematics shown in FIGS. 9A and 9C. Target cell killing was assessed and plotted as described in Example 4.
In comparing the different panels of FIGS. 9A-9D, note that the schematics shown in FIGS. 9A and 9C indicate the MTX concentration in the co-culture at the start of the assay for a given round, whereas the results from that assay are shown the next round number in FIGS. 9B and 9D, respectively. […]

human CD33 = assay: Biacore SPR binding kinetics of anti-CD33 scFv-Fc clones with or without 10 µM MTX; details: CD33, 37° C., pH 7.4, scFv-Fc
Source text: The first 4 rounds of panning used biotinylated CD33 antigen captured on streptavidin or neutravidin coated 96-well plates. […] 1536 clones were randomly chosen from the 4th and 5th round of panning against the CD33 antigen and their binding specificity determined by phage ELISA. Clones that specifically bound to CD33 were sequenced and all unique clones were subjected to a phage competition ELISA to assess their relative affinities to CD33 and sensitivity to MTX by measuring their binding strengths in the presence or absence of 10 µM (micromolar) MTX (i.e. in 0 or 10 µM MTX).
All binding kinetics analysis was performed on label-free Biacore surface plasmon biosensors (Biacore T200™ from GE Life Sciences) at 37° C. in 10 mM Hepes pH 7.4, 150 mM NaCl, 0.05% Tween-20 (HBST+), with or without 10 µM MTX. The Biacore data were processed in Biacore T200 Evaluation Software, and the data were double-referenced (Myszka, 1999, J Mol Recognit 12(5):279-284) and fit globally to a simple Langmuir with mass transport model to determine the equilibrium dissociation constant, KD, from the ratio of the kinetic rate constants (KD = koff/kon). In some cases the binding of antigen was very low (or not detectable) in the presence of 10 µM MTX and as a result kinetic rate constants could not be accurately determined. In these cases, a KD (or KD limit) was estimated based on the binding response at the highest analyte concentration tested or based on the typical limit of detection for a Biacore T200.

Row | Molecule | target cell killing when MTX is added to active CAR T cells ("on" to "off") (MV4-11 cells) | koff, kinetics toward antigen with 0 µM MTX (human CD33) [s⁻¹] | kon, kinetics toward antigen with 0 µM MTX (human CD33) [M⁻¹ s⁻¹] | koff, kinetics toward antigen with 10 µM MTX (human CD33; 10 µM MTX) [s⁻¹] | kon, kinetics toward antigen with 10 µM MTX (human CD33; 10 µM MTX) [M⁻¹ s⁻¹]
1 | B1 | quick inhibition rates | 0.0029 | 95000 | 0.025 | 170000
2 | B2 | requires two rounds of MTX to be fully inhibited | 0.0057 | 50000 | – | –
